Patent US8211422

Target: GA733 antigen (37 kD protein expressed on colorectal carcinoma cells) (UniProt P16422)
Assay: cell-based or functional assay

Sequence of UniProt P16422 (P16422 24-314): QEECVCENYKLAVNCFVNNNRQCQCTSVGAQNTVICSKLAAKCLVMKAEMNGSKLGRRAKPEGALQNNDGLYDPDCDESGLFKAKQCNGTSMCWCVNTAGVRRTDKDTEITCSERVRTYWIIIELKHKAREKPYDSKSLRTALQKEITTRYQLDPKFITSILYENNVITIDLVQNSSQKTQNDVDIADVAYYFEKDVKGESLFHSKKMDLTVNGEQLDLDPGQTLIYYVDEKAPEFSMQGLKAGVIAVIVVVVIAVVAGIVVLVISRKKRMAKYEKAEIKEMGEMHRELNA

% Specific Lysis of CY13, effector:target 3.3:1: 10.3%
% Specific Lysis of CY13, effector:target 10:1: 22.2%
% Specific Lysis of CY13, effector:target 30:1: 38.7%
% Specific Lysis of CY13, effector:target 90:1: 52.2%
GM-CSF production by PBL (stimulator CY13) (pg/ml/5 × 10^5 PBL/24 hours): 1280
GM-CSF production by PBL (stimulator GREM) (pg/ml/5 × 10^5 PBL/24 hours): 2980
Substance: chimeric receptor GA733-γ (scFv of MAb GA733 joined to the γ chain of the Fc receptor)
